In patent US20050153887A1:
Blank lines part the entries; values can stand above or below the molecule they belong to.

Assays:
Assay in all cases: cell-based or functional assay
[1] = target: endogenous Ryk of mouse (mouse) (UniProt Q01887)
[2] = target: Ryk (DNA construct expressing Ryk, transfected into 293T cells for the reporter assays)
[3] = target: Dishevelled (overexpressed in 293T cells for the reporter assay)
[4] = target: endogenous Ryk in 293T cells (human) (UniProt P34925)
Chain of UniProt P34925 (P34925 other isoform, or with tags, fused parts or gaps limits assumed): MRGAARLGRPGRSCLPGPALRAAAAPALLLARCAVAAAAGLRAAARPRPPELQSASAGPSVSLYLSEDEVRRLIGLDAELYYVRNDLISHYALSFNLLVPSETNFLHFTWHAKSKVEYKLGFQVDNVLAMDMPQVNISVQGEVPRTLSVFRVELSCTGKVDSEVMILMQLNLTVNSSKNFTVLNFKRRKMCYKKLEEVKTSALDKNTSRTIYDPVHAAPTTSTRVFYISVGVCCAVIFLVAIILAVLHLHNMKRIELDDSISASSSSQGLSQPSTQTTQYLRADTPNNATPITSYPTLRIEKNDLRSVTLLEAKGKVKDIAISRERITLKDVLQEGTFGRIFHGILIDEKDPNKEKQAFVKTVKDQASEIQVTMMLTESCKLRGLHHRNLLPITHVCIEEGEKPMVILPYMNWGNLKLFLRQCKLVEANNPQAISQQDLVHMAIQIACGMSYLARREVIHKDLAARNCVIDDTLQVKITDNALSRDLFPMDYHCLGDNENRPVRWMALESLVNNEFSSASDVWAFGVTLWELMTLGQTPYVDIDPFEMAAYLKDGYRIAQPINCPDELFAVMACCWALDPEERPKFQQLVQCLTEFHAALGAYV

Chain of UniProt Q01887 (Q01887 35-594 limits assumed): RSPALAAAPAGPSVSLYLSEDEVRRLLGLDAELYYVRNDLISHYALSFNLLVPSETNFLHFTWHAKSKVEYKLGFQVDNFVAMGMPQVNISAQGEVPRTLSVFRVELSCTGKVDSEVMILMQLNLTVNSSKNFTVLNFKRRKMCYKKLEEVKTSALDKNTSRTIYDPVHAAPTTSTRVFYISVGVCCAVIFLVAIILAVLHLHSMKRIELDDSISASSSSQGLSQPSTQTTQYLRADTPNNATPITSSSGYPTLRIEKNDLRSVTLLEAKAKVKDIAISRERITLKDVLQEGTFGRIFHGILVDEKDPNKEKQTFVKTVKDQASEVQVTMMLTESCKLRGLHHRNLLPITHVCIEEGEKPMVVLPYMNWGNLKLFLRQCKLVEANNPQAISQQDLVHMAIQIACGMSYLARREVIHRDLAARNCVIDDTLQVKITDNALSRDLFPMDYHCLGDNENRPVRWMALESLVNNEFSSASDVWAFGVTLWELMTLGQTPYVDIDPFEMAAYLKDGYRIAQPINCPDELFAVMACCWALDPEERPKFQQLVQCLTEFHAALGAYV

average length of neurites of DRG explants in Wnt3a conditioned medium, Ryk siRNA mice against wild type [1]: 2 fold | activation of the TCF-luciferase reporter in 293T cells transfected with Ryk and treated with Wnt3a conditioned medium [2]: 5 fold
Molecule: Wnt3a (Wnt3a conditioned medium) (ligand)

activation of the TCF-luciferase reporter on co-expression of Ryk with Dishevelled (Dishevelled alone about 15-fold) [3]: 25 fold
Molecule: Ryk (DNA construct expressing Ryk, transfected into 293T cells for the reporter assays) (receptor)

activation of the TCF-luciferase reporter in wild type 293T cells after Wnt stimulation [4]: 25 fold | inhibition of TCF-driven transcription induced by Wnt-1 in Ryk siRNA-containing 293T cells [4]: 12 fold
B1: Wnt-1 (cotransfected into 293T cells for the reporter assay) (ligand, UniProt P04628 28-370, looked up, species assumed)
Proto-oncogene Wnt-1: ANSSGRWWGIVNVASSTNLLTDSKSLQLVLEPSLQLLSRKQRRLIRQNPGILHSVSGGLQSAVRECKWQFRNRRWNCPTAPGPHLFGKIVNRGCRETAFIFAITSAGVTHSVARSCSEGSIESCTCDYRRRGPGGPDWHWGGCSDNIDFGRLFGREFVDSGEKGRDLRFLMNLHNNEAGRTTVFSEMRQECKCHGMSGSCTVRTCWMRLPTLRAVGDVLRDRFDGASRVLYGNRGSNRASRAELLRLEPEDPAHKPPSPHDLVYFEKSPNFCTYSGRLGTAGTAGRACNSSSPALDGCELLCCGRGHRTRTQRVTERCNCTFHWCCHVSCRNCTHTRVLHECL
